In US8653023:

Target: protein phosphatase 2A (PP2A), endogenous, in N27 cell lysate

B1: protein kinase C delta (PKCδ), endogenous, in N27 cell lysate (immortalized rat fetal mesencephalic dopaminergic neuronal cells) (protein)
chain: MAPFLRISFNSYELGSLQAEDDASQPFCAVKMKEALTTDRGKTLVQKKPTMYPEWKSTFDAHIYEGRVIQIVLMRAAEDPMSEVTVGVSVLAERCKKNNGKAEFWLDLQPQAKVLMCVQYFLEDGDCKQSMRSEEEAMFPTMNRRGAIKQAKIHYIKNHEFIATFFGQPTFCSVCKEFVWGLNKQGYKCRQCNAAIHKKCIDKIIGRCTGTATNSRDTIFQKERFNIDMPHRFKVYNYMSPTFCDHCGTLLWGLVKQGLKCEDCGMNVHHKCREKVANLCGINQKLLAEALNQVTQKASRKPETPETVGIYQGFEKKTAVSGNDIPDNNGTYGKIWEGSNRCRLENFTFQKVLGKGSFGKVLLAELKGKERYFAIKYLKKDVVLIDDDVECTMVEKRVLALAWENPFLTHLICTFQTKDHLFFVMEFLNGGDLMFHIQDKGRFELYRATFYAAEIICGLQFLHGKGIIYRDLKLDNVMLDKDGHIKIADFGMCKENIFGENRASTFCGTPDYIAPEILQGLKYSFSVDWWSFGVLLYEMLIGQSPFHGDDEDELFESIRVDTPHYPRWITKESKDIMEKLFERDPAKRLGVTGNIRLHPFFKTINWNLLEKRKVEPPFKPKVKSPSDYSNFDPEFLNEKPQLSFSDKNLIDSMDQTAFKGFSFVNPKYEQFLE
32P-kinase assay: phosphorylation of immunoprecipitated PP2A: PP2A immunoprecipitated from N27 cells was effectively phosphorylated by PKCδ immunoprecipitates
